Data published in publication doi:10.1101/675587.

Molecular target: recombinant caprine β-lactoglobulin (unlabelled) (caprine) (UniProt P02756)
Test: AUC

stoichiometry N: 2
Substance: recombinant caprine β-lactoglobulin (unlabelled) (from UniProt P02756 19-180) (natural protein)
